# Measurements: the supplement of paper PMC7125110
# ± gives the standard error. This sample holds only a part of the variants without activity.
# B1: glmS ribozyme (parent)
# chain: AUAAAAGCGCCAGAACUACAGAAAUGUAGUUGACGAGGAGGAGGUUUAUCGAAUUUUCGGCGGAUGCCUCCAAA
# Assays:
# Settings in all cases: with glucosamine-6-phosphate
# glucosamine-6-phosphate [1] = variants of: B1; assay: self-cleavage kobs at 40 uM GlcN6P; higher = faster cleavage; RNA array
# In short: (§1)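 Barcoded glmS ribozyme variants on sequenced MiSeq chips were transcribed in situ by E. coli RNA polymerase and tracked through a hybridised Cy3 probe at 37 °C. Glucosamine-6-phosphate (40 μM to 10 mM) in HEPES/KCl/Mg(OAc)2 buffer was flowed in, and tiles were imaged over ~14 h. Signals were normalised to baseline and to non-cleaving reference variants; per-tile medians were fit to one- or two-exponential decays to give kobs. kcat and KM came from weighted Michaelis–Menten fits across concentrations.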
# glucosamine-6-phosphate [2] = variants of: B1; assay: self-cleavage kobs at 160 uM GlcN6P; higher = faster cleavage; RNA array
# In short: as §1
# glucosamine-6-phosphate [3] = variants of: B1; assay: self-cleavage kobs at 640 uM GlcN6P; higher = faster cleavage; RNA array
# In short: as §1
# glucosamine-6-phosphate [4] = variants of: B1; assay: self-cleavage kobs at 10000 uM GlcN6P; higher = faster cleavage; RNA array
# In short: as §1
# glucosamine-6-phosphate [5] = variants of: B1; assay: self-cleavage kobs at 2500 uM GlcN6P; higher = faster cleavage; RNA array
# In short: as §1
Variant,self-cleavage kobs at 40 uM GlcN6P (glucosamine-6-phosphate [1]),self-cleavage kobs at 160 uM GlcN6P (glucosamine-6-phosphate [2]),self-cleavage kobs at 640 uM GlcN6P (glucosamine-6-phosphate [3]),self-cleavage kobs at 10000 uM GlcN6P (glucosamine-6-phosphate [4]),self-cleavage kobs at 2500 uM GlcN6P (glucosamine-6-phosphate [5])
G7A G9U U31G G41A U65C,< 1e-05 s⁻¹,< 1e-05 s⁻¹,< 1e-05 s⁻¹,–,–
C34G G40U G63C C68U,< 1e-05 s⁻¹,–,–,< 1e-05 s⁻¹,–
G35U A48C G60C,< 1e-05 s⁻¹,–,–,< 1e-05 s⁻¹,< 1e-05 s⁻¹
A1U U2G A3G A5U A6C G7C C8A G29C G32U G60U,< 1e-05 s⁻¹,–,–,–,–
G37U A39G G62A C68A,< 1e-05 s⁻¹,–,–,< 1e-05 s⁻¹,–
A14U G35U G44C U57C,< 1e-05 s⁻¹,–,–,< 1e-05 s⁻¹,< 1e-05 s⁻¹
G41A G63U,< 1e-05 s⁻¹,< 1e-05 s⁻¹,< 1e-05 s⁻¹,< 1e-05 s⁻¹,< 1e-05 s⁻¹
A15G U30C C67A,0.000291 ± 6.8e-05 s⁻¹,0.00105 ± 0.00028 s⁻¹,0.00103 ± 0.00029 s⁻¹,0.0108 ± 0.0031 s⁻¹,0.00517 ± 0.0012 s⁻¹
C11G G32A,< 1e-05 s⁻¹,< 1e-05 s⁻¹,< 1e-05 s⁻¹,< 1e-05 s⁻¹,–
G32C G63A,< 1e-05 s⁻¹,< 1e-05 s⁻¹,< 1e-05 s⁻¹,–,< 1e-05 s⁻¹
A6U G26A A48U A52G,< 1e-05 s⁻¹,< 1e-05 s⁻¹,–,–,–
G44U A53G C70A,< 1e-05 s⁻¹,–,–,< 1e-05 s⁻¹,< 1e-05 s⁻¹
C11U U69G,5.87e-05 ± 1.4e-05 s⁻¹,7.55e-05 ± 2.7e-05 s⁻¹,0.000286 ± 6.5e-05 s⁻¹,5.87e-05 ± 8.8e-06 s⁻¹,9.51e-05 ± 2.1e-05 s⁻¹
C10A A14G G44C,< 1e-05 s⁻¹,–,–,< 1e-05 s⁻¹,< 1e-05 s⁻¹
A15U G40U G51U C71U,< 1e-05 s⁻¹,–,–,–,–
A36U C68G C70U,8.4e-05 ± 2.2e-05 s⁻¹,–,–,0.000213 ± 4.7e-05 s⁻¹,–
G66C C68A,< 1e-05 s⁻¹,–,0.000128 ± 5.4e-05 s⁻¹,–,5.93e-05 ± 2.7e-05 s⁻¹
A52U G63U,< 1e-05 s⁻¹,< 1e-05 s⁻¹,–,< 1e-05 s⁻¹,–
U55A U57C U69C C70U,< 1e-05 s⁻¹,–,–,–,–
U46A U49G,< 1e-05 s⁻¹,–,–,2.85e-05 ± 1.2e-05 s⁻¹,–
A12G A53C U55G,< 1e-05 s⁻¹,–,–,0.000115 ± 1.8e-05 s⁻¹,–
A15G U31A A36U,< 1e-05 s⁻¹,–,–,–,–
U45C C58G,< 1e-05 s⁻¹,< 1e-05 s⁻¹,< 1e-05 s⁻¹,–,–

Variant,self-cleavage kobs at 40 uM GlcN6P (glucosamine-6-phosphate [1]),self-cleavage kobs at 160 uM GlcN6P (glucosamine-6-phosphate [2]),self-cleavage kobs at 640 uM GlcN6P (glucosamine-6-phosphate [3]),self-cleavage kobs at 10000 uM GlcN6P (glucosamine-6-phosphate [4]),self-cleavage kobs at 2500 uM GlcN6P (glucosamine-6-phosphate [5])
C8U A42U G44A U56C,< 1e-05 s⁻¹,–,–,–,–
U31G U56G,0.000123 ± 2.1e-05 s⁻¹,0.000145 ± 4e-05 s⁻¹,0.000347 ± 8.2e-05 s⁻¹,0.00342 ± 0.00086 s⁻¹,0.00132 ± 0.00034 s⁻¹
A39U C61A,< 1e-05 s⁻¹,< 1e-05 s⁻¹,< 1e-05 s⁻¹,< 1e-05 s⁻¹,< 1e-05 s⁻¹
C8G A15U,< 1e-05 s⁻¹,< 1e-05 s⁻¹,< 1e-05 s⁻¹,< 1e-05 s⁻¹,< 1e-05 s⁻¹
G41U G44U A64U,< 1e-05 s⁻¹,–,–,< 1e-05 s⁻¹,–
A14G U31A A52C,< 1e-05 s⁻¹,–,–,–,–
A12U U45G U55C,0.000356 ± 7.4e-05 s⁻¹,–,–,0.00793 ± 0.002 s⁻¹,–
U31C C34U G60U,< 1e-05 s⁻¹,–,–,< 1e-05 s⁻¹,–
A6G G63A,< 1e-05 s⁻¹,< 1e-05 s⁻¹,< 1e-05 s⁻¹,< 1e-05 s⁻¹,< 1e-05 s⁻¹
A15C G35U,< 1e-05 s⁻¹,< 1e-05 s⁻¹,< 1e-05 s⁻¹,–,< 1e-05 s⁻¹
G43U U54A,< 1e-05 s⁻¹,–,–,6.37e-05 ± 2e-05 s⁻¹,–
U30A G35A G59A C71G,< 1e-05 s⁻¹,–,–,–,< 1e-05 s⁻¹
A6C G32C G60U,< 1e-05 s⁻¹,–,–,< 1e-05 s⁻¹,–
A6G G66U,< 1e-05 s⁻¹,< 1e-05 s⁻¹,< 1e-05 s⁻¹,–,–
G32C G35C,< 1e-05 s⁻¹,–,< 1e-05 s⁻¹,< 1e-05 s⁻¹,–
C8U G41C,< 1e-05 s⁻¹,–,< 1e-05 s⁻¹,< 1e-05 s⁻¹,–
C10U A12U G51U U56A,< 1e-05 s⁻¹,–,–,< 1e-05 s⁻¹,–
U30A A33U G41U A53C G60A C68G,< 1e-05 s⁻¹,< 1e-05 s⁻¹,< 1e-05 s⁻¹,< 1e-05 s⁻¹,–
G13U C50G C67A,0.000194 ± 4.6e-05 s⁻¹,0.000278 ± 4.6e-05 s⁻¹,–,0.000101 ± 2.5e-05 s⁻¹,0.000138 ± 2.2e-05 s⁻¹
C10A C16A G51U C68G C71A,7.7e-05 ± 2e-05 s⁻¹,–,0.00052 ± 0.00016 s⁻¹,8.53e-05 ± 1.6e-05 s⁻¹,–
C34U G38C,< 1e-05 s⁻¹,< 1e-05 s⁻¹,< 1e-05 s⁻¹,< 1e-05 s⁻¹,–
G7A C10U U45G C70G,< 1e-05 s⁻¹,–,< 1e-05 s⁻¹,< 1e-05 s⁻¹,< 1e-05 s⁻¹
